In patent US20030229005A1 (BIOZYME, published 2003):
Primed or numbered codes have the meaning given here. The star is where a group is joined. Dabcyl′ = CN(C)c1ccc(/N=N/c2ccc(C(=O)*)cc2)cc1; Dnp = O=[N+]([O-])c1ccc(*)c([N+](=O)[O-])c1; fluorescein = fluorescein label

Legend:
Assay in all cases: cell-based or functional assay
[1] = target: T1, collagenase 1 (UniProt P03956 100-469, limits assumed)
T1 sequence (looked up): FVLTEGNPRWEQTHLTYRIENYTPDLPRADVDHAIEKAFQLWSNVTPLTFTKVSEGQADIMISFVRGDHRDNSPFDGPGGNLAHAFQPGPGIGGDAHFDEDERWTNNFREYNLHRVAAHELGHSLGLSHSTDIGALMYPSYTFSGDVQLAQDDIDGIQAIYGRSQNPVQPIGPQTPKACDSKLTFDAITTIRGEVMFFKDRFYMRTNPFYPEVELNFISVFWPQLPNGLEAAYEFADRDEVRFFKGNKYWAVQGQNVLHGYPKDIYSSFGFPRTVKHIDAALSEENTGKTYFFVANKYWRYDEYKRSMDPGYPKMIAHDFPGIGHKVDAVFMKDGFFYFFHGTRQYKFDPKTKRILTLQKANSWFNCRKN

[2] = target: T2, human Gelatinase-A (human, UniProt P08253 110-660, limits assumed)
T2 sequence (looked up): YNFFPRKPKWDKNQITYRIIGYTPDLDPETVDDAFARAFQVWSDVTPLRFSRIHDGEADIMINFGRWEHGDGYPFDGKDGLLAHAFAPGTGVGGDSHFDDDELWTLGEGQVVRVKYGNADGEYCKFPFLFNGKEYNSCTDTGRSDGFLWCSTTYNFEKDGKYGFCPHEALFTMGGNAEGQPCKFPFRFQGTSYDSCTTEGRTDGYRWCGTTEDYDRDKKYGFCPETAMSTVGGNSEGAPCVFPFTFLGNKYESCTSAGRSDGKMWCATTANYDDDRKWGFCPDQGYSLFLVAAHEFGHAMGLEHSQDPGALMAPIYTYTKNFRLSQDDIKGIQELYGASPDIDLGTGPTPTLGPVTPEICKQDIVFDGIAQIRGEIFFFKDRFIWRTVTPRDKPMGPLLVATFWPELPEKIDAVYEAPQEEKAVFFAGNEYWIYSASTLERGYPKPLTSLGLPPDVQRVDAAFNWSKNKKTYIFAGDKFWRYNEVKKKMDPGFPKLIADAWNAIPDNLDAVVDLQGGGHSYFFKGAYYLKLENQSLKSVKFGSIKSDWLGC

[3] = target: T3, gelatinase B (UniProt P14780 107-707, limits assumed)
[4] = target: T1, collagenase 1; remark: listed apart in the source
[5] = target: T4, stromelysin 1 (UniProt P08254 100-477, limits assumed)
[6] = target: T2, human Gelatinase-A; remark: listed apart in the source
[7] = target: T3, gelatinase B; remark: listed apart in the source
[8] = target: T1, collagenase 1; remark: listed apart in the source
[9] = target: T4, stromelysin 1; remark: listed apart in the source
[10] = target: human Collagenase-3 (human, UniProt P45452 104-471, limits assumed)
[11] = target: T2, human Gelatinase-A; remark: listed apart in the source
[12] = target: T3, gelatinase B; remark: listed apart in the source
[13] = target: T1, collagenase 1; remark: listed apart in the source
[14] = target: T4, stromelysin 1; remark: listed apart in the source

T4 sequence (P08254 100-477 limits assumed): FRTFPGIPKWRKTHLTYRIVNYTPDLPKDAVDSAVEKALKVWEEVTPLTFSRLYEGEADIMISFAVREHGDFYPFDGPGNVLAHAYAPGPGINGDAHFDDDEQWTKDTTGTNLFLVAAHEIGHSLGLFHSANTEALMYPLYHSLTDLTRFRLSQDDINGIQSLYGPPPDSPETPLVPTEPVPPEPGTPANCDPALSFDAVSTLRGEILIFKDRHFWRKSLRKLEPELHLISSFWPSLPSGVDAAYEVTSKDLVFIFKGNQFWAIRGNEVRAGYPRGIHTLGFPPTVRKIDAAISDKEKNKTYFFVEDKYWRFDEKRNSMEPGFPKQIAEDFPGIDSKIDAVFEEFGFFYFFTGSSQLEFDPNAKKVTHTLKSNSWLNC
T3 sequence (P14780 107-707 limits assumed): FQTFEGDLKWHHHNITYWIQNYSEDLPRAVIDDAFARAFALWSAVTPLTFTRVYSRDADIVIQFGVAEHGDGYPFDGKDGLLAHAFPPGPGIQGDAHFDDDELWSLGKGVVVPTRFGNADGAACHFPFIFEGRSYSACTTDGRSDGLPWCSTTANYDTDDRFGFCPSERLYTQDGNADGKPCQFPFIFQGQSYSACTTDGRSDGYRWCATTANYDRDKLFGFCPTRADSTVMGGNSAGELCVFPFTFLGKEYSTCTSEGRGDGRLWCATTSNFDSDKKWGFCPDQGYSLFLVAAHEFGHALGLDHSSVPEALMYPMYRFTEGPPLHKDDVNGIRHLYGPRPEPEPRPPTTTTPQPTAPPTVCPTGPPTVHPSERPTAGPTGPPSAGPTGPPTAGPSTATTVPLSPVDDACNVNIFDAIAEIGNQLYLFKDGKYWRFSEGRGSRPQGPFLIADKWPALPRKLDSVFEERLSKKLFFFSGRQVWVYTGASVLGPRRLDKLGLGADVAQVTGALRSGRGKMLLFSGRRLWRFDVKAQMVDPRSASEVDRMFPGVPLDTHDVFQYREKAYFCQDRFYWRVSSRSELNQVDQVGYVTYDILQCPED

B1: Dabcyl-GPLGMRGC(Fluorescein)-NH2 (peptide)
peptide: {Dabcyl′}-GPLGMRGC(fluorescein)-NH2
For B1, the “selectivity towards Col-3” value [1] was 215 fold, the “Selectivity v Col-3, + Gel” value [2] was 25.8 unitless and the “Selectivity v Col-3, + Gel” value [3] was 6.3 unitless. The “Selectivity v Col-3, + Gel” value [4] was 78.4 unitless and the “Selectivity v Col-3, + Gel” value [5] was 769 unitless.

B2: Dnp-GPHPFRG-NH2 (peptide)
peptide: Dnp-GPHPFRG-NH2
SMILES: N=C(N)NCCC[C@H](NC(=O)[C@H](Cc1ccccc1)NC(=O)[C@@H]1CCCN1C(=O)[C@H](Cc1c[nH]cn1)NC(=O)[C@@H]1CCCN1C(=O)CNc1ccc([N+](=O)[O-])cc1[N+](=O)[O-])C(=O)NCC(N)=O
With B2 the “Selectivity v. Coll-3” value [6] was 17 unitless, the “Selectivity v. Coll-3” value [7] was 8 unitless and the “Selectivity v. Coll-3” value [8] was 3350 unitless. For the same binder, the “Selectivity v. Coll-3” value [9] was 2300 unitless.

B3: Dnp-GPLQFRG-NH2 (peptide)
peptide: Dnp-GPLQFRG-NH2
SMILES: CC(C)C[C@H](NC(=O)[C@@H]1CCCN1C(=O)CNc1ccc([N+](=O)[O-])cc1[N+](=O)[O-])C(=O)N[C@@H](CCC(N)=O)C(=O)N[C@@H](Cc1ccccc1)C(=O)N[C@@H](CCCNC(=N)N)C(=O)NCC(N)=O
With B3 the “Selectivity v. Coll-3” value [6] was 32 unitless, the “Selectivity v. Coll-3” value [7] was 7 unitless and the “Selectivity v. Coll-3” value [8] was 3680 unitless. For the same binder, the “Selectivity v. Coll-3” value [9] was 700 unitless.

B4: Dnp-GPKGITS-NH2 (peptide)
peptide: Dnp-GPKGITS-NH2
SMILES: CC[C@H](C)[C@H](NC(=O)CNC(=O)[C@H](CCCCN)NC(=O)[C@@H]1CCCN1C(=O)CNc1ccc([N+](=O)[O-])cc1[N+](=O)[O-])C(=O)N[C@H](C(=O)N[C@@H](CO)C(N)=O)[C@@H](C)O
In the case of B4, the “Selectivity v. Coll-3” value [6] is reported as 6 unitless, the “Selectivity v. Coll-3” value [7] is reported as 2 unitless and the “Selectivity v. Coll-3” value [8] is reported as 548 unitless. The “Selectivity v. Coll-3” value [9] was 37000 unitless.

B5: Dabcyl-GPVNLHGC(Flu)-NH2 (peptide)
peptide: {Dabcyl′}-GPVNLHGC(fluorescein)-NH2
In the case of B5, the “increase in specificity with type II collagen” value [10] is reported as 2.5 fold, the “Selectivity v Col-3” value [2] is reported as 2.3 unitless and the “Selectivity v Col-3, + Gel” value [2] is reported as 26.5 unitless. For the same binder, the “Selectivity v Col-3” value [3] was 0.7 unitless, the “Selectivity v Col-3, + Gel” value [3] was 6 unitless and the “Selectivity v Col-3” value [4] was 128 unitless. The “Selectivity v Col-3, + Gel” value [4] was 92.3 unitless, the “Selectivity v Col-3” value [5] was 71.3 unitless and the “Selectivity v Col-3, + Gel” value [5] was 72.5 unitless. For the same binder, the “Improvement In Selectivity for 44 ug/ml Type II Collagen vs no Type II Collagen” value [11] was 80 fold, the “Selectivity v Col-3, + 1.6 ug/ml TIICol” value [11] was 9.3 unitless and the “Selectivity v Col-3, + 4.9 ug/ml TIICol” value [11] was 26.3 unitless. For the same binder, the “Selectivity v Col-3, + 15 ug/ml TIICol” value [11] was 75.9 unitless, the “Selectivity v Col-3, + 44 ug/ml TIICol” value [11] was 465 unitless and the “Selectivity v Col-3, + .18 ug/ml TIICol” value [11] was 7.7 unitless. The “Selectivity v Col-3, + .55 ug/ml TIICol” value [11] was 9.9 unitless, the “Selectivity v Col-3, no TIICol” value [11] was 5.8 unitless and the “Improvement In Selectivity for 44 ug/ml Type II Collagen vs no Type II Collagen” value [12] was 46 fold. For the same binder, the “Selectivity v Col-3, + 1.6 ug/ml TIICol” value [12] was 3 unitless, the “Selectivity v Col-3, + 4.9 ug/ml TIICol” value [12] was 5.7 unitless and the “Selectivity v Col-3, + 15 ug/ml TIICol” value [12] was 15.2 unitless. The “Selectivity v Col-3, + 44 ug/ml TIICol” value [12] was 58.8 unitless, the “Selectivity v Col-3, + .18 ug/ml TIICol” value [12] was 1.8 unitless and the “Selectivity v Col-3, + .55 ug/ml TIICol” value [12] was 2.2 unitless. The “Selectivity v Col-3, no TIICol” value [12] was 1.3 unitless, the “Improvement In Selectivity for 44 ug/ml Type II Collagen vs no Type II Collagen” value [13] was 2.5 fold and the “Selectivity v Col-3, + 1.6 ug/ml TIICol” value [13] was 227 unitless. The “Selectivity v Col-3, + 4.9 ug/ml TIICol” value [13] was 265 unitless, the “Selectivity v Col-3, + 15 ug/ml TIICol” value [13] was 355 unitless and the “Selectivity v Col-3, + 44 ug/ml TIICol” value [13] was 424 unitless. The “Selectivity v Col-3, + .18 ug/ml TIICol” value [13] was 190 unitless, the “Selectivity v Col-3, + .55 ug/ml TIICol” value [13] was 221 unitless and the “Selectivity v Col-3, no TIICol” value [13] was 166 unitless. For the same binder, the “Improvement In Selectivity for 44 ug/ml Type II Collagen vs no Type II Collagen” value [14] was 2.5 fold, the “Selectivity v Col-3, + 1.6 ug/ml TIICol” value [14] was 389 unitless and the “Selectivity v Col-3, + 4.9 ug/ml TIICol” value [14] was 335 unitless. For the same binder, the “Selectivity v Col-3, + 15 ug/ml TIICol” value [14] was 447 unitless, the “Selectivity v Col-3, + 44 ug/ml TIICol” value [14] was 476 unitless and the “Selectivity v Col-3, + .18 ug/ml TIICol” value [14] was 263 unitless. The “Selectivity v Col-3, + .55 ug/ml TIICol” value [14] was 281 unitless and the “Selectivity v Col-3, no TIICol” value [14] was 192 unitless.

B6: Dnp-VTPYNMRG-NH2 (peptide)
peptide: Dnp-VTPYNMRG-NH2
SMILES: CSCC[C@H](NC(=O)[C@H](CC(N)=O)NC(=O)[C@H](Cc1ccc(O)cc1)NC(=O)[C@@H]1CCCN1C(=O)[C@@H](NC(=O)[C@@H](Nc1ccc([N+](=O)[O-])cc1[N+](=O)[O-])C(C)C)[C@@H](C)O)C(=O)N[C@@H](CCCNC(=N)N)C(=O)NCC(N)=O
With B6 the “Selectivity v. Coll-3” value [6] was 31 unitless, the “Selectivity v. Coll-3” value [7] was 4 unitless and the “Selectivity v. Coll-3” value [8] was 39 unitless. For the same binder, the “Selectivity v. Coll-3” value [9] was 1000 unitless.
